Target: purified recombinant human insulin receptor-exon 11 (human) (UniProt P06213)
Test: competition with 125I-insulin (SPA)

Chain of purified recombinant human insulin receptor-exon 11 (human) (P06213 other isoform, or with tags, fused parts or gaps limits assumed, form in doubt): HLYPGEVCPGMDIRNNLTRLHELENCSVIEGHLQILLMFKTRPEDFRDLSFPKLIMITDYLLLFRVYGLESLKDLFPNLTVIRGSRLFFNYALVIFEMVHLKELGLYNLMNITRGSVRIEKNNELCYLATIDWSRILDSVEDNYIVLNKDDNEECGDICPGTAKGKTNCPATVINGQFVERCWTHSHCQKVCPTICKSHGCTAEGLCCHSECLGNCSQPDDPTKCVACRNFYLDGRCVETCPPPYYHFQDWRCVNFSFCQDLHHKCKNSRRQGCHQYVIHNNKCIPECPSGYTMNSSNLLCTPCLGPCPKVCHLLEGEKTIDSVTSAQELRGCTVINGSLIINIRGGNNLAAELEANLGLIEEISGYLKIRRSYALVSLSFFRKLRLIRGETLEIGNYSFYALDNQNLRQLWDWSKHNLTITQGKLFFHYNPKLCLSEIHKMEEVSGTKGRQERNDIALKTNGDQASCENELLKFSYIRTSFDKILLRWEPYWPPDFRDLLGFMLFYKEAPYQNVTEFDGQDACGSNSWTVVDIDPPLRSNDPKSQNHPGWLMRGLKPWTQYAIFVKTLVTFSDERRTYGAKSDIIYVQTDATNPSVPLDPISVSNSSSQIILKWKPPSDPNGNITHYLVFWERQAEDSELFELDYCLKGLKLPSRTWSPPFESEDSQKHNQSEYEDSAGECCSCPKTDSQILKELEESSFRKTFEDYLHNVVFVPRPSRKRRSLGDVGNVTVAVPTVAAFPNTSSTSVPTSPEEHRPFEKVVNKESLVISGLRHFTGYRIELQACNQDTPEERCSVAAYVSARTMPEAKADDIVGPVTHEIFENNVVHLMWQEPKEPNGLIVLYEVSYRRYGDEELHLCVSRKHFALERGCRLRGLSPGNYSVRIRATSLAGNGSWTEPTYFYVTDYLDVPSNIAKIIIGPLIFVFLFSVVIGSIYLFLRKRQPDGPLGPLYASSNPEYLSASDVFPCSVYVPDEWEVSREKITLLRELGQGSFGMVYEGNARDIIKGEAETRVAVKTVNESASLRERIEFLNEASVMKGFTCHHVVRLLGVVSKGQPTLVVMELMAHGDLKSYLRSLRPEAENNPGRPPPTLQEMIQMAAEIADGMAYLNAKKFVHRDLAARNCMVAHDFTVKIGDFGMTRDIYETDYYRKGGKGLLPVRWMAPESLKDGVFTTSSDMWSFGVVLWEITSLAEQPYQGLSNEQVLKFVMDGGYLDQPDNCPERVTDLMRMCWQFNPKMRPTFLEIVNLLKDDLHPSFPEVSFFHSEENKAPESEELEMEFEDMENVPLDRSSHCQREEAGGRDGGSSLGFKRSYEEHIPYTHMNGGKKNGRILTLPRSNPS

IR, binding relative to human insulin [%] | Substance
80 | single-chain insulin PAK 1744, connecting peptide VGSSSGK [A18Q_A21G] (from UniProt P01308 25-53; P01308 90-110) (ligand)
69 | single-chain insulin PAK 1869, connecting peptide VGLSSGQ [B22K_B29A_A18Q] (from UniProt P01308 25-53; P01308 90-110) (ligand)
56 | single-chain insulin PAK 1769062, connecting peptide PVGSSSGK [A18Q_A21G] (from UniProt P01308 25-53; P01308 90-110) (ligand)
172 | single-chain insulin PAK 1878, connecting peptide VGLSSGQ [B3K_A18K_A21G] (from UniProt P01308 25-53; P01308 90-110) (ligand)
38 | single-chain insulin PAK 1892, connecting peptide TGLGSGQ [desB1_B3Q_B10A_A18Q] (from UniProt P01308 26-53; P01308 90-110) (ligand)
120 | single-chain insulin PAK 1764, connecting peptide AGLGSGK [A18Q_A21G] (from UniProt P01308 25-53; P01308 90-110) (ligand)
50 | single-chain insulin PAK 1835, connecting peptide TGLGKGQ [B29E_A18Q] (from UniProt P01308 25-53; P01308 90-110) (ligand)
118 | single-chain insulin PAK 1812, connecting peptide TGLGRGK [A18Q_A21G] (from UniProt P01308 25-53; P01308 90-110) (ligand)
68 | single-chain insulin PAK 1769027, connecting peptide LVGSSSGK [A18Q_A21G] (from UniProt P01308 25-53; P01308 90-110) (ligand)
33 | single-chain insulin PAK 1723, connecting peptide VGSSRGK [A21G] (from UniProt P01308 25-53; P01308 90-110) (ligand)
123 | single-chain insulin PAK 1787, connecting peptide VGLSSGQ [A18Q_A21G] (from UniProt P01308 25-53; P01308 90-110) (ligand)
42 | single-chain insulin PAK 1769015, connecting peptide EVGSSSGK [A18Q_A21G] (from UniProt P01308 25-53; P01308 90-110) (ligand)
38 | single-chain insulin PAK 1894, connecting peptide TGLGSGQ [desB1_B3Q_B10Q_A18Q] (from UniProt P01308 26-53; P01308 90-110) (ligand)
34 | single-chain insulin PAK 1891, connecting peptide TGLGSGQ [B10A_A18Q] (from UniProt P01308 25-53; P01308 90-110) (ligand)
51 | single-chain insulin PAK 1769020, connecting peptide SVGSSSGK [A18Q_A21G] (from UniProt P01308 25-53; P01308 90-110) (ligand)
37 | single-chain insulin PAK 1769053, connecting peptide GVGSSSGK [A18Q_A21G] (from UniProt P01308 25-53; P01308 90-110) (ligand)
89 | single-chain insulin PAK 1884, connecting peptide VGLSSGQ [B29A_A8K_A18Q] (from UniProt P01308 25-53; P01308 90-110) (ligand)

Substance | IR, binding relative to human insulin [%]
single-chain insulin PAK 1769040, connecting peptide VVGSSSGK [A18Q_A21G] (from UniProt P01308 25-53; P01308 90-110) (ligand) | 29
